Data as given in patent US6174855A, “Pharmaceutical compositions comprising thrombin inhibitors and their use in the control of wound healing processes” (AstraZeneca AB, priority 1996, dated 2001).

System: fibrin-related adhesions between the stomach and the liver, the intestines and the omentum
Assay: Acetic acid injury to the serosal surface of the rat stomach: formation of adhesions
Assay type: in vivo
Settings: minipump in abdominal cavity, outlet free and open; wound covered by chitosan membrane; up to 10 days
Protocol: The serosal surface of the stomach of an adult anaesthetised rat was exposed in an area of 7 mm diameter to 80% acetic acid over 60 seconds. After rinsing with buffered saline solution, an osmotic minipump (Alza 2001, volume about 220 μL; pumping rate about 1 μL/h; Alza Corp.; Palo Alto, Calif., USA; prefilled with a solution of the thrombin inhibitor melagatran, 2-100 μg/mL) was implanted into the peritoneal cavity, with the outlet of the pump kept open, and delivered its content into the abdominal cavity. The wounded area was covered by a chitosan membrane or, in an alternative experiment, a gel, having a diameter several millimeters larger than that of the injured area.
The serosal surface of the stomach of an adult, anaesthetised rat was exposed in an area of 7 mm diameter to 80% acetic acid over 60 seconds. After rinsing with buffered saline, the wounded area was covered by a chitosan membrane or, in an alternative experiment, a gel, having a diameter several millimeters larger than the injured area. An osmotic minipump (Alza 2001, volume about 220 μL; pumping rate about 1 μL/h; Alza Corp.; Palo Alto, Calif., USA; prefilled with a solution of the thrombin inhibitor melagatran, 2-100 μg/mL) was implanted subcutaneously, with the outlet of the pump kept open, delivering its content into the adjacent tissue. […]

B1: Actilyse: recombinant human tissue-plasminogen-activator; Boehringer Ingelheim (protein, UniProt P00750 36-562, looked up)
Tissue-type plasminogen …: SYQVICRDEKTQMIYQQHQSWLRPVLRSNRVEYCWCNSGRAQCHSVPVKSCSEPRCFNGGTCQQALYFSDFVCQCPEGFAGKCCEIDTRATCYEDQGISYRGTWSTAESGAECTNWNSSALAQKPYSGRRPDAIRLGLGNHNYCRNPDRDSKPWCYVFKAGKYSSEFCSTPACSEGNSDCYFGNGSAYRGTHSLTESGASCLPWNSMILIGKVYTAQNPSAQALGLGKHNYCRNPDGDAKPWCHVLKNRRLTWEYCDVPSCSTCGLRQYSQPQFRIKGGLFADIASHPWQAAIFAKHRRSPGERFLCGGILISSCWILSAAHCFQERFPPHHLTVILGRTYRVVPGEEEQKFEVEKYIVHKEFDDDTYDNDIALLQLKSDSSRCAQESSVVRTVCLPPADLQLPDWTECELSGYGKHEALSPFYSERLKEAHVRLYPSSRCTSQHLLNRTVTDNMLCAGDTRSGGPQANLHDACQGDSGGPLVCLNDGRMTLVGIISWGLGCGQKDVPGVYTKVTNYLDWIRDNMRP
fibrin network or strands of newly formed granulation tissue connecting the stomach with the liver, the intestines and the omentum: No fibrin network, nor any strands of newly formed granulation tissue, could be detected
